Experimental data taken from the supplement of paper PMC6757056.
± gives the standard deviation of the averaged measurements.

B1: library; a variant is named by its letters at N, in order (parent)
chain: GCUGUCACCGGUGCUUGGUACGUUAUAUUCAGCCGGUCUGAUGAGUCUNNNNNNAGACGAAACAGC

Experiments:
(6R,S)-folinic acid [1] = variants of: B1; assay: normalized RNA/DNA level without ligand (relative to sTRSVctl = 100) (log10 (% of sTRSVctl)); HEK293T overexpressing SLC46A1; higher = less ribozyme self-cleavage, higher mRNA level; conditions: without (6R,S)-folinic acid; ligand present: no
Procedure, shortened: (§1)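 Library plasmids carrying ribozyme switches linked to mCherry, or to eGFP in some ligand experiments, were transfected into HEK293T at 4 µg per 6-well well, with any ligand added 1 h earlier. Seventy-two hours on, total RNA was extracted with EDTA and reverse-transcribed, amplified, barcoded and sequenced. RNA level was RNA over DNA reads normalized to a spiked-in non-cleaving sequence or to the top sequences, then scaled and log-transformed. The top set was 25 sequences, the transform was ×100 and log10, and sequences needed ≥100 DNA reads.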

(6R,S)-folinic acid [2] = variants of: B1; assay: normalized RNA/DNA level with ligand (relative to sTRSVctl = 100) (log10 (% of sTRSVctl)); HEK293T overexpressing SLC46A1; ligand concentration (+) RNA-Seq: 6 mM; higher = less ribozyme self-cleavage, higher mRNA level; conditions: with (6R,S)-folinic acid; ligand present: yes
Procedure, shortened: as §1

Row | Variant | normalized RNA/DNA level without ligand (log10) ((6R,S)-folinic acid [1]) | normalized RNA/DNA level with ligand (log10) ((6R,S)-folinic acid [2])
1 | GCUGUCACCGGUGCUUGGUACGUUAUAUUCAGCCGGUCUGAUGAGUCUAUUUCAAGACGAAACAGC [AUUUCA] | 2.036 ± 0.012 | 2.01 ± 0.026
2 | GCUGUCACCGGUGCUUGGUACGUUAUAUUCAGCCGGUCUGAUGAGUCUGUUGUUAGACGAAACAGC [GUUGUU] | 2.03 ± 0.021 | 2.035 ± 0.018
3 | GCUGUCACCGGUGCUUGGUACGUUAUAUUCAGCCGGUCUGAUGAGUCUGUUUCAAGACGAAACAGC [GUUUCA] | 2.03 ± 0.034 | 1.99 ± 0.04
4 | GCUGUCACCGGUGCUUGGUACGUUAUAUUCAGCCGGUCUGAUGAGUCUUUUUAAAGACGAAACAGC [UUUUAA] | 1.973 ± 0.018 | 2.03 ± 0.02
5 | GCUGUCACCGGUGCUUGGUACGUUAUAUUCAGCCGGUCUGAUGAGUCUUUUUAUAGACGAAACAGC [UUUUAU] | 2.007 ± 0.016 | 2.02 ± 0.023
6 | GCUGUCACCGGUGCUUGGUACGUUAUAUUCAGCCGGUCUGAUGAGUCUCUUUAUAGACGAAACAGC [CUUUAU] | 1.9766 ± 0.0013 | 2 ± 0.048
7 | GCUGUCACCGGUGCUUGGUACGUUAUAUUCAGCCGGUCUGAUGAGUCUCUUUAAAGACGAAACAGC [CUUUAA] | 1.978 ± 0.0046 | 2 ± 0.026
8 | GCUGUCACCGGUGCUUGGUACGUUAUAUUCAGCCGGUCUGAUGAGUCUCUUUAGAGACGAAACAGC [CUUUAG] | 1.97 ± 0.024 | 1.9987 ± 0.00067
9 | GCUGUCACCGGUGCUUGGUACGUUAUAUUCAGCCGGUCUGAUGAGUCUCUUUACAGACGAAACAGC [CUUUAC] | 2.019 ± 0.0086 | 2.01 ± 0.062
10 | GCUGUCACCGGUGCUUGGUACGUUAUAUUCAGCCGGUCUGAUGAGUCUUUUUCAAGACGAAACAGC [UUUUCA] | 2.018 ± 0.011 | 2.02 ± 0.041
11 | GCUGUCACCGGUGCUUGGUACGUUAUAUUCAGCCGGUCUGAUGAGUCUUUUGUCAGACGAAACAGC [UUUGUC] | 2.069 ± 0.018 | 2.034 ± 0.02
12 | GCUGUCACCGGUGCUUGGUACGUUAUAUUCAGCCGGUCUGAUGAGUCUUUUGUUAGACGAAACAGC [UUUGUU] | 1.944 ± 0.0033 | 1.99 ± 0.032
13 | GCUGUCACCGGUGCUUGGUACGUUAUAUUCAGCCGGUCUGAUGAGUCUUUUGUGAGACGAAACAGC [UUUGUG] | 1.73 ± 0.051 | 1.95 ± 0.046
14 | GCUGUCACCGGUGCUUGGUACGUUAUAUUCAGCCGGUCUGAUGAGUCUCUUGUUAGACGAAACAGC [CUUGUU] | 2.02 ± 0.03 | 1.995 ± 0.018
15 | GCUGUCACCGGUGCUUGGUACGUUAUAUUCAGCCGGUCUGAUGAGUCUAUUUAAAGACGAAACAGC [AUUUAA] | 1.953 ± 0.013 | 1.99 ± 0.059
16 | GCUGUCACCGGUGCUUGGUACGUUAUAUUCAGCCGGUCUGAUGAGUCUAUUUAGAGACGAAACAGC [AUUUAG] | 1.949 ± 0.013 | 2.01 ± 0.026
17 | GCUGUCACCGGUGCUUGGUACGUUAUAUUCAGCCGGUCUGAUGAGUCUAUUGUUAGACGAAACAGC [AUUGUU] | 1.988 ± 0.0071 | 1.998 ± 0.008
18 | GCUGUCACCGGUGCUUGGUACGUUAUAUUCAGCCGGUCUGAUGAGUCUCUUUCAAGACGAAACAGC [CUUUCA] | 1.992 ± 0.013 | 2.01 ± 0.077
19 | GCUGUCACCGGUGCUUGGUACGUUAUAUUCAGCCGGUCUGAUGAGUCUGUUUAUAGACGAAACAGC [GUUUAU] | 1.99 ± 0.02 | 1.99 ± 0.031
20 | GCUGUCACCGGUGCUUGGUACGUUAUAUUCAGCCGGUCUGAUGAGUCUGUUUACAGACGAAACAGC [GUUUAC] | 2.02 ± 0.028 | 2.016 ± 0.002
21 | GCUGUCACCGGUGCUUGGUACGUUAUAUUCAGCCGGUCUGAUGAGUCUGUUUAAAGACGAAACAGC [GUUUAA] | 1.989 ± 0.0071 | 1.99 ± 0.025
